In the Immune Epitope Database (IEDB):

Legend:
[1] = target: HLA-B*08:01; experiment: IEDB peptide-MHC binding, purified MHC/competitive/radioactivity; filed as Kd, often an IC50 or EC50 that approximates it; ≥ and ≤ were set here for values at or beyond the usual limits of such assays
[2] = target: HLA-B*57:01; experiment: IEDB peptide-MHC binding, purified MHC/competitive/fluorescence; filed as Kd, often an IC50 or EC50 that approximates it; ≥ and ≤ were set here for values at or beyond the usual limits of such assays
[3] = target: HLA-B*27:03; experiment: as above
[4] = target: HLA-B*51:01; experiment: as above; conditions: source organism: Helicobacter pylori 26695
[5] = target: HLA-A*03:01; experiment: as above
[6] = target: HLA-B*15:01; experiment: as above
[7] = target: HLA-B*18:01; experiment: as above
[8] = target: HLA-B*39:01; experiment: as above
[9] = target: HLA-A*02:01; experiment: as above
[10] = target: HLA-B*46:01; experiment: as above
[11] = target: HLA-A*26:01; experiment: as above
[12] = target: HLA-A*68:02; experiment: IEDB peptide-MHC binding, purified MHC/competitive/radioactivity; filed as Kd, often an IC50 or EC50 that approximates it; ≥ and ≤ were set here for values at or beyond the usual limits of such assays
[13] = target: HLA-A*02:06; experiment: as above
[14] = target: HLA-A*02:03; experiment: as above
[15] = target: HLA-A*02:02; experiment: as above
[16] = target: HLA-A*11:01; experiment: as above; conditions: source organism: Vaccinia virus Copenhagen
[17] = target: HLA-B*51:01; experiment: as above
[18] = target: HLA-A*03:01; experiment: as above; conditions: source organism: Vaccinia virus Copenhagen
[19] = target: HLA-B*07:02; experiment: as above
[20] = target: HLA-B*53:01; experiment: as above
[21] = target: HLA-A*31:01; experiment: as above; conditions: source organism: Vaccinia virus Copenhagen
[22] = target: HLA-A*68:01; experiment: as above; conditions: source organism: Vaccinia virus Copenhagen
[23] = target: HLA-A*33:01; experiment: as above; conditions: source organism: Vaccinia virus Copenhagen
[24] = target: HLA-B*35:01; experiment: as above
[25] = target: HLA-B*54:01; experiment: as above
[26] = target: HLA-B*15:01; experiment: as above
[27] = target: HLA-A*02:01; experiment: as above
[28] = target: HLA-B*44:02; experiment: as above
[29] = target: HLA-B*18:01; experiment: IEDB peptide-MHC binding, purified MHC/direct/fluorescence; filed as Kd, often an IC50 or EC50 that approximates it; ≥ and ≤ were set here for values at or beyond the usual limits of such assays; conditions: source organism: dengue virus type 1
[30] = target: HLA-B*44:03; experiment: IEDB peptide-MHC binding, purified MHC/competitive/radioactivity; filed as Kd, often an IC50 or EC50 that approximates it; ≥ and ≤ were set here for values at or beyond the usual limits of such assays; conditions: source organism: Dengue virus 1 Brazil/97-11/1997
[31] = target: HLA-B*46:01; experiment: IEDB peptide-MHC binding, purified MHC/direct/fluorescence; filed as Kd, often an IC50 or EC50 that approximates it; ≥ and ≤ were set here for values at or beyond the usual limits of such assays; conditions: source organism: Yellow fever virus
[32] = source organism: Vaccinia virus Copenhagen
[33] = source organism: Helicobacter pylori 26695
[34] = source organism: Dengue virus 4 Philippines/H241/1956
[35] = source organism: SARS coronavirus Tor2
[36] = source organism: Mammarenavirus brazilense
[37] = source organism: Dengue virus 2 Jamaica/1409/1983
[38] = source organism: Vaccinia virus WR
[39] = source organism: Lassa virus Josiah
[40] = source organism: Triticum aestivum
[41] = source organism: Dengue virus 1 Brazil/97-11/1997
[42] = source organism: Camelpox virus CMS
[43] = source organism: Mammarenavirus lassaense
[44] = source organism: Dengue virus 3 Martinique/1243/1999

NRMEIFLVL gave a Kd [1, 32] of 0.00485 µM.
In the case of GIVCYNEEV, the Kd [2, 33] is reported as ≥ 20 µM, the Kd [3, 33] is reported as ≥ 20 µM and the Kd [4] is reported as ≥ 20 µM. The Kd [5, 33] was ≥ 20 µM, the Kd [6, 33] was ≥ 20 µM and the Kd [7, 33] was ≥ 20 µM. The Kd [8, 33] was ≥ 20 µM, the Kd [9, 33] was 0.038 µM and the Kd [10, 33] was ≥ 20 µM. For the same sequence, the Kd [11, 33] was ≥ 20 µM.
In the case of IMAVGLVSLL, the Kd [1, 34] is reported as 0.863 µM.
Work on RLFTKVKPLL yielded a Kd ([12]; source organism: Homo sapiens) of 13.6 µM, a Kd ([13]; source organism: Homo sapiens) of 4.04 µM and a Kd ([14]; source organism: Homo sapiens) of 0.096 µM.
FLTSVINRV was tested, and the Kd ([9]; source organism: Variola virus) was 0.0035 µM, the Kd [15, 32] was 0.00166 µM and the Kd [16] was ≥ 77.9 µM. The Kd [17, 32] was ≥ 37.2 µM, the Kd [18] was ≥ 78 µM and the Kd [19, 32] was ≥ 77.5 µM. For the same sequence, the Kd [20, 32] was ≥ 61 µM, the Kd [21] was ≥ 77.9 µM and the Kd [22] was 9.6 µM. For the same sequence, the Kd [23] was ≥ 77.7 µM, the Kd [14, 32] was 0.00563 µM and the Kd [24, 32] was 19 µM. For the same sequence, the Kd [25, 32] was 0.904 µM.
With SPNLAWPLIV the Kd [17, 35] was 2.79 µM, the Kd [19, 35] was 0.123 µM and the Kd [20, 35] was 1.66 µM. For the same sequence, the Kd [24, 35] was 0.887 µM and the Kd [25, 35] was 0.556 µM.
For APFMSDLQF, the Kd [17, 36] was ≥ 39.3 µM, the Kd [19, 36] was 0.148 µM and the Kd [20, 36] was 0.0319 µM. The Kd [24, 36] was 0.00755 µM and the Kd [25, 36] was ≥ 36.3 µM.
ITASILLWYA gave a Kd [12, 37] of 0.0124 µM and a Kd [13, 37] of 0.00198 µM.
With TASLVMLLV the Kd ([12]; source organism: Dengue virus 4 Dominica/814669/1981) was 0.0825 µM.
With ELEKTRRKL the Kd ([12]; source organism: Homo sapiens) was 6.99 µM and the Kd ([13]; source organism: Homo sapiens) was ≥ 45.2 µM.
In the case of MSIISFFPF, the Kd [1, 38] is reported as 0.857 µM and the Kd [26, 38] is reported as 0.000168 µM.
TSAWVMYGT gave a Kd [12, 34] of 0.0017 µM.
LPVNVAFEL gave a Kd [17, 35] of 0.00114 µM, a Kd [20, 35] of 0.0104 µM and a Kd [24, 35] of 0.00189 µM. The Kd [25, 35] was 0.42 µM.
With SIFIRMLIL the Kd [1, 32] was 0.0101 µM.
With LLKPRCNPA the Kd [1, 38] was 0.00116 µM and the Kd [26, 38] was 0.0206 µM.
In the case of NSTHEMYWV, the Kd [12, 37] is reported as 0.0921 µM.
DLNLGNLN was tested, and the Kd ([27]; source organism: Hepatitis B virus subtype ayw) was ≥ 5 µM.
APATVCGPKL was tested, and the Kd [17, 35] was 7.07 µM, the Kd [19, 35] was 0.0304 µM and the Kd [20, 35] was ≥ 50 µM. For the same sequence, the Kd [24, 35] was ≥ 69.9 µM and the Kd [25, 35] was ≥ 69.9 µM.
Work on IISTFHLSI yielded a Kd [15, 39] of 0.236 µM, a Kd [12, 39] of 0.652 µM and a Kd [13, 39] of 0.264 µM. It also gave a Kd [14, 39] of 0.0139 µM.
EIASLPTYL gave a Kd [12, 34] of 0.00791 µM.
Work on GIRPRFLSQ yielded a Kd [1, 32] of 0.221 µM.
Work on MEKLRIKGM yielded a Kd [1, 34] of 0.0208 µM and a Kd [28, 34] of 1.26 µM.
In the case of LPDDFMGCVL, the Kd [17, 35] is reported as 0.0984 µM, the Kd [19, 35] is reported as 0.105 µM and the Kd [20, 35] is reported as 0.499 µM. For the same sequence, the Kd [24, 35] was 0.353 µM and the Kd [25, 35] was 5.49 µM.
In the case of MPEKRNVVVV, the Kd [17, 38] is reported as 2.09 µM, the Kd [19, 38] is reported as 0.194 µM and the Kd [20, 38] is reported as 13.2 µM. For the same sequence, the Kd [24, 38] was 4.35 µM and the Kd [25, 38] was 0.0406 µM.
FPLCANGQVF showed a Kd [17, 35] of 0.0106 µM, a Kd [19, 35] of 0.0871 µM and a Kd [20, 35] of 0.00194 µM. For the same sequence, the Kd [24, 35] was 0.00184 µM and the Kd [25, 35] was 0.358 µM.
In the case of FPANINDKQI, the Kd [17, 38] is reported as 0.145 µM, the Kd [19, 38] is reported as 0.468 µM and the Kd [20, 38] is reported as 0.00877 µM. The Kd [24, 38] was 0.384 µM and the Kd [25, 38] was 0.0138 µM.
YPSGQGSF showed a Kd [17, 40] of 0.998 µM, a Kd [19, 40] of 11.1 µM and a Kd [20, 40] of 5.15 µM. It also gave a Kd [24, 40] of 4.88 µM and a Kd [25, 40] of 13.3 µM.
SRISRFANL was tested, and the Kd [1, 38] was 0.0196 µM.
YAKSKRMAE showed a Kd [1, 38] of 0.0311 µM.
ELNDRFANYI was tested, and the Kd ([15]; source organism: Homo sapiens) was 0.0376 µM and the Kd ([12]; source organism: Homo sapiens) was 0.0116 µM.
With VSRQEKGKSL the Kd ([1]; source organism: Dengue virus 2 Peru/IQT2913/1996) was 0.967 µM.
Work on SIFLHLVKI yielded a Kd [27, 39] of 0.385 µM.
Work on SFKFRPGSL yielded a Kd [1, 38] of 0.00298 µM.
With MEVQLIRQM the Kd [29] was 0.0015 µM, the Kd [28, 41] was 0.0173 µM and the Kd [30] was 0.0189 µM.
With WVIDTLNGI the Kd [2, 42] was ≥ 20 µM, the Kd [3, 42] was ≥ 20 µM and the Kd [5, 42] was ≥ 20 µM. The Kd [6, 42] was ≥ 20 µM, the Kd [7, 42] was ≥ 20 µM and the Kd [8, 42] was ≥ 20 µM. For the same sequence, the Kd [9, 42] was 0.0074 µM, the Kd [10, 42] was ≥ 20 µM and the Kd [11, 42] was ≥ 20 µM.
Sequence NLYDHALMSI has a Kd [15, 39] of 0.00175 µM, a Kd [12, 39] of 0.075 µM and a Kd [13, 39] of 0.0231 µM. For the same sequence, the Kd [14, 39] was 0.000543 µM.
With VLIEVNPPF the Kd [31] was ≥ 20 µM.
With IPFNVVTAM the Kd [17, 43] was 4.23 µM, the Kd [19, 43] was 0.0185 µM and the Kd [20, 43] was 0.0739 µM. It also gave a Kd [24, 43] of 0.00525 µM and a Kd [25, 43] of 0.504 µM.
With LLSQRTRDI the Kd [27, 39] was 12.5 µM.
For DLNGAQIKL, the Kd ([15]; source organism: Homo sapiens) was 2.62 µM, the Kd ([12]; source organism: Homo sapiens) was 2.98 µM and the Kd ([27]; source organism: Homo sapiens) was ≥ 50.6 µM.
Work on MPILTLTRAL yielded a Kd [17, 35] of 0.00824 µM, a Kd [19, 35] of 0.00946 µM and a Kd [20, 35] of 0.202 µM. For the same sequence, the Kd [24, 35] was 0.0137 µM and the Kd [25, 35] was 0.0854 µM.
With KPESRPFDLI the Kd [17, 38] was ≥ 69.6 µM, the Kd [19, 38] was 1.38 µM and the Kd [20, 38] was 18.6 µM. For the same sequence, the Kd [24, 38] was ≥ 69.9 µM and the Kd [25, 38] was 18.5 µM.
For MQRKHGGML, the Kd [1, 41] was 0.17 µM and the Kd [26, 41] was 0.1 µM.
FLLLCGRSCT was tested, and the Kd [27, 39] was ≥ 25 µM.
TVVVGDIIGV showed a Kd [12, 44] of 0.00187 µM and a Kd [13, 44] of 0.00244 µM.
Work on IPDELIDVL yielded a Kd [17, 38] of 2.18 µM, a Kd [19, 38] of 0.373 µM and a Kd [20, 38] of 0.458 µM. It also gave a Kd [24, 38] of 0.256 µM and a Kd [25, 38] of 12.3 µM.
With PPFTQHLLNI the Kd [17, 38] was 12.5 µM, the Kd [19, 38] was ≥ 69.6 µM and the Kd [20, 38] was ≥ 20.9 µM. The Kd [24, 38] was ≥ 69.9 µM and the Kd [25, 38] was ≥ 69.9 µM.
MPVETLFGSY was tested, and the Kd [17, 38] was ≥ 69.6 µM, the Kd [19, 38] was ≥ 44 µM and the Kd [20, 38] was 0.00228 µM. It also gave a Kd [24, 38] of 0.00328 µM and a Kd [25, 38] of 0.106 µM.
